Each block holds one binder with its values, some of them ahead of it.
What was measured:
[1] = target: T1, CD137 on CD137 stably transfected 293T cells (UniProt Q07011 24-255, limits assumed); experiment: flow cytometry, whole cell binding to CD137/NFkB 293T cells, Alexa Fluor 488 anti-human IgG F(ab')2 secondary, median fluorescence intensity
T1 construct: whole, on cells; also called CD137/NF-κB reporter cells
Protocol: (§1) The binding affinity of bispecific antibodies to cell surface receptors was also quantified in whole cell binding assay. […] Afterwards, cells were washed with PBS twice and then incubated with secondary Alexa Fluor® 488 AffiniPure Goat Anti-Human IgG, F(ab′)2 fragment specific antibody (Jackson ImmunoResearch, Code 109-545-006) for 30 min at 4° C. in FACS buffer. The cells were then washed with PBS twice and resuspended in FACS buffer. […] The median fluorescence intensity was fitted using a non-linear model with GraphPad 8.0.
(§2) The anti-CD137×EGFR bispecific antibodies included variants with IgG1 wild type Fc, IgG1 Fc with LALA mutation and different linkers.

EGFR on SK-Hep1 cells = target: T2, EGFR on SK-Hep1 cells (UniProt P00533 25-1210, limits assumed); experiment: flow cytometry, whole cell binding to SKHep1 EGFR high cells, Alexa Fluor 488 anti-human IgG F(ab')2 secondary, median fluorescence intensity
T2 construct: whole, on cells; also called EGFR positive SK-Hep1 tumor cells; EGFR high SK-Hep1 cells
Protocol: as §1, §2

Human CD137-his [2] = target: T3, Human CD137-his (human, UniProt Q07011 24-186); experiment: BLI (Octet Red 96), antibody captured on AHC sensor, 1:1 Langmuir fit
T3 construct: Bought reagent; also called Human CD137-His (Sino Biological, 10041-H08H)
Protocol: (§3) Biolayer interferometry was used to measure the association and dissociation constants for the binding kinetics of bispecific antibodies. The binding kinetics was measured on a FortieBio Octet Red 96 at 30° C. and analyzed with the FortieBio Data Analysis 9.0 software. Anti-human-IgG Fc (AHC) sensor was used to capture the bispecific or control antibodies. Double binding was performed by association with the first antigen, then dissociation, and association with the second antigen, then dissociation. A regeneration cycle with 20 mM glycine, pH 1.5 was used between different antibody cycles. The 1×kinetic buffer (FortieBio) was used for baseline. Human CD137-His (Sino Biologicals Cat: 10041-H08H) and rhesus CD137-His protein (Sino Biologicals Cat: 90847-K08H) were diluted into kinetic buffer in a series of concentrations. A kinetic buffer only well was set as a reference well for subtraction during data processing. Data were fitted with a 1:1 Langmuir model for association and dissociation using Rmax linked global fitting for each antibody-antigen binding. Human CD137-his is a recombinant CD137 protein with a poly histidine tag fused to C-terminus of human CD137 antigen (Sino Biological, 10041-H08H). Human EGFR-his is a recombinant EGFR protein with a poly histidine tag fused to C-terminus of human EGFR antigen (Acro Biosystem, EGR-H5222-100 ug).

Human EGFR-his = target: T4, Human EGFR-his (human, UniProt P00533 25-645); experiment: as above
T4 construct: Bought reagent; also called EGFR-His (Acro Biosystem, EGR-H5222-100 ug)
Protocol: as §3

Human CD137-his [3] = target: T3, Human CD137-his; experiment: BLI (Octet), second round, antibody captured on AHC sensor
Protocol: (§4) Biolayer interferometry was used to measure the association and dissociation constants for the binding kinetics of the anti-CD137 antibodies. The binding kinetics was measured on a FortieBio Octet Red 96 at 30° C. and analyzed with the FortieBio Data Analysis 9.0 software. Anti-human-IgG Fc (AHC) sensor was used to capture the anti-CD137 antibodies or control antibodies. A kinetic buffer only well was set as a reference well for subtraction during data processing. Data were fitted with a 1:1 Langmuir model for association and dissociation using Rmax linked global fitting for each antibody-antigen binding. Human CD137-his is a recombinant CD137 antigen with a poly histidine tag fused to C-terminus of human CD137 antigen (Sino Biological, 10041-H08H). Cyno CD137-his is a recombinant CD137 antigen with a poly histidine tag fused to C-terminus of cynomolgus CD137 antigen (Sino Biological, 90847-K02H-100).

mouse CD137 = target: T5, mouse CD137 (mouse, UniProt P20334 24-187, limits assumed); experiment: biolayer interferometry (Octet Red 96), antibody captured on AHC sensor
T5 sequence (looked up): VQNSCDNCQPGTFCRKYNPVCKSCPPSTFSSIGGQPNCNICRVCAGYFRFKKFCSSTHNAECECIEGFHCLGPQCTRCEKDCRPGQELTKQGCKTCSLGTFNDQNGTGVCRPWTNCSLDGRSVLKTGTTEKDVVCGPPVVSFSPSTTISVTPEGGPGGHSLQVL

Human CD137-his [4] = target: T3, Human CD137-his; experiment: BLI (Octet Red 96), antibody captured on AHC sensor, 1:1 Langmuir fit; remark: listed apart in the source
Protocol: as §4

Cyno CD137-his = target: T6, Cyno CD137-his (cynomolgus monkey, UniProt A9YYE7 24-186); experiment: as above
T6 construct: Bought reagent; also called cynomolgus monkey CD137; cynomolgus CD137 (Sino Biological, 90847-K02H-100)
T6 sequence: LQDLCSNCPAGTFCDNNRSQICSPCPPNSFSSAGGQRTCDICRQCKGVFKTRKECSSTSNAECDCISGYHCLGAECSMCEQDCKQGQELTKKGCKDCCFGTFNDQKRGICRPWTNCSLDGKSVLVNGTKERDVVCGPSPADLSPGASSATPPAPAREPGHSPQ
Protocol: as §4

T1 sequence (Q07011 24-255 limits assumed): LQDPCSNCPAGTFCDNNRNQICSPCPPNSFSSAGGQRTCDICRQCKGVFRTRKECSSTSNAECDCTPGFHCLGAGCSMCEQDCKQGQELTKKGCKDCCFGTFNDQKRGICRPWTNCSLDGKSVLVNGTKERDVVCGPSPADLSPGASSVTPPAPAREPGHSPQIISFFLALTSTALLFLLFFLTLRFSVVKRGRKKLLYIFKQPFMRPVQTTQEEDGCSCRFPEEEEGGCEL

EC50 (read off the curve) [1]: ~10 nM
EC50 (read off the curve) (EGFR on SK-Hep1 cells): ~0.2 nM
B4: aCD137-scFv-αEGFR-IgG1-LALA-Linker 10 (bispecific antibody)
heavy: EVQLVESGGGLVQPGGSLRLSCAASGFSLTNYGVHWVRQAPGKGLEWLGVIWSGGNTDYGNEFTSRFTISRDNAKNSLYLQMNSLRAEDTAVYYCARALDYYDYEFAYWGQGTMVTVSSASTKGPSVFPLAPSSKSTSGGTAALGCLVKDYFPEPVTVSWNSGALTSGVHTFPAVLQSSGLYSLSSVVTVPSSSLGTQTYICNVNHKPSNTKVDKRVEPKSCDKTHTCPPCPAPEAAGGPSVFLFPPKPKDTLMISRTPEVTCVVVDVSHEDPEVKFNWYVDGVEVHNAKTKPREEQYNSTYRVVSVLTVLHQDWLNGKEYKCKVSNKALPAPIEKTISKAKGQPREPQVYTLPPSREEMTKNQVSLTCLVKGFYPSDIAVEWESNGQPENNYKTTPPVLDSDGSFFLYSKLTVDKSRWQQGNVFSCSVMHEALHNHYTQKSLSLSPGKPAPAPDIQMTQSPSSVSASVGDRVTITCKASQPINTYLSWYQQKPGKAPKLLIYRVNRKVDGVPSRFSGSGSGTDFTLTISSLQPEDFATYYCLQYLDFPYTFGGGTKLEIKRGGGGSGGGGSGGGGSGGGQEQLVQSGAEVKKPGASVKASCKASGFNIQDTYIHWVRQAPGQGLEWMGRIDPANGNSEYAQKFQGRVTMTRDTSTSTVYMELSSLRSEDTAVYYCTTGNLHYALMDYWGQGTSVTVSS
light: EIVLTQSPATLSLSPGERATLSCRASQSIGTNIHWYQQKPGQAPRLLIKYASESISGIPARFSGSGSGTDFTLTISSLEPEDFAVYYCQQNNNWPTSFGGGTKVEIKRTVAAPSVFIFPPSDEQLKSGTASVVCLLNNFYPREAKVQWKVDNALQSGNSQESVTEQDSKDSTYSLSSTLTLSKADYEKHKVYACEVTHQGLSSPVTKSFNRGEC
notes: The Linker 10 bispecific with the LALA mutation in the IgG1 Fc; also called Anti-EGFR HC-anti-CD137 scFv-IgG1 LALA-Linker 10 (HCC)

EC50 (read off the curve) [1]: ~10 nM
EC50 (read off the curve) (EGFR on SK-Hep1 cells): ~0.2 nM
B5: aCD137scFv-αEGFR-IgG1-LALA (Linker 7) (bispecific antibody)
heavy: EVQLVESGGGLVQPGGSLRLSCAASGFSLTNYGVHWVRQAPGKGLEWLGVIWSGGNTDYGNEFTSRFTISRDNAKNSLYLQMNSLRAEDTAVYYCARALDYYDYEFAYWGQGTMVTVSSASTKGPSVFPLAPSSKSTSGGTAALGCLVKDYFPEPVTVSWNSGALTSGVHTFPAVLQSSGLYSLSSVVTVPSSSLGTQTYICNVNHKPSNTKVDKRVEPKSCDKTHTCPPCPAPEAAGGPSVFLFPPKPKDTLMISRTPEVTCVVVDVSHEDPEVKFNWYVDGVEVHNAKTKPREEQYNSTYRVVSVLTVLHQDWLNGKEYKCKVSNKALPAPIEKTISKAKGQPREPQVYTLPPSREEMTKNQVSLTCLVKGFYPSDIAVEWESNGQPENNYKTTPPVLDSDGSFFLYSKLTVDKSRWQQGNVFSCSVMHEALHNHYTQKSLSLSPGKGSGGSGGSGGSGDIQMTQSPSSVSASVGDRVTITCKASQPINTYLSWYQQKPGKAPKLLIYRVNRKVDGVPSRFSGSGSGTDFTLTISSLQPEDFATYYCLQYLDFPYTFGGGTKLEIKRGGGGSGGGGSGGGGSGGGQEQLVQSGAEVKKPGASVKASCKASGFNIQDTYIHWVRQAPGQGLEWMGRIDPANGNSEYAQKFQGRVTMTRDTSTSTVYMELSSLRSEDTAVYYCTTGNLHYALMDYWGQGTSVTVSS
light: B4 light
notes: The Linker 7 bispecific with the LALA mutation in the IgG1 Fc; also called Anti-EGFR-HC-anti-CD137 scFv-IgG1-LALA-Linker 7 (HCC); αCD137scFv-αEGFR-IgG1 LALA

The next lines start with the binder.

B1: aCD137-scFv-αEGFR-IgG1-Linker7 (bispecific antibody)
heavy: not shown
light: B4 light
notes: also called Anti-EGFR HC-anti-CD137 scFv-IgG1-Linker 7 (HCC)
EC50 (read off the curve) [1]: ~10 nM
EC50 (read off the curve) (EGFR on SK-Hep1 cells): ~0.3 nM

B2: aCD137-scFv-αEGFR-IgG1-Linker 10 (bispecific antibody)
heavy: not shown
light: B4 light
EC50 (read off the curve) [1]: ~10 nM
EC50 (read off the curve) (EGFR on SK-Hep1 cells): ~0.3 nM

B3: Anti-CD137 scFv x anti-EGFR IgG1 HCC (bispecific antibody)
heavy: not shown
light: B4 light
notes: The tie rests on the label only; also called 2-9scFv-αEGFR2-HC-C; anti-CD137×EGFR bispecific antibody
Kd (Human CD137-his [2]): 6.25 nM
koff (Human CD137-his [2]): 0.000116 s⁻¹
kon (Human CD137-his [2]): 18600 M⁻¹ s⁻¹
Kd (Human EGFR-his): 2.45 nM
koff (Human EGFR-his): 0.000991 s⁻¹
kon (Human EGFR-his): 404000 M⁻¹ s⁻¹

B6: Anti-CD137 2-9 IgG2 (antibody, V domains shown)
VH: QVQLVQSGAEVKKPGASVKASCKASGFNIQDTYIHWVRQAPGQGLEWMGRIDPANGNSEYAQKFQGRVTMTRDTSTSTVYMELSSLRSEDTAVYYCTTGNLHYALMDYWGQGTSVTVSS
VL: DIQMTQSPSSVSASVGDRVTITCKASQPINTYLSWYQQKPGKAPKLLIYRVNRKVDGVPSRFSGSGSGTDFTLTISSLQPEDFATYYCLQYLDFPYTFGGGTKLEIKR
notes: also called clone 2-9 IgG2 wt; 2-9 IgG2 wildtype
Kd (Human CD137-his [3]): 5.5 nM
koff (Human CD137-his [3]): 0.000314 s⁻¹
kon (Human CD137-his [3]): 57100 M⁻¹ s⁻¹
binding result (mouse CD137): no binding
Kd (Human CD137-his [4]): 9.33 nM
koff (Human CD137-his [4]): 0.000869 s⁻¹
kon (Human CD137-his [4]): 93100 M⁻¹ s⁻¹
Kd (Cyno CD137-his): 2.76 nM
koff (Cyno CD137-his): 0.000712 s⁻¹
kon (Cyno CD137-his): 258000 M⁻¹ s⁻¹
Kd (Human CD137-his [2]): 4.52 nM
koff (Human CD137-his [2]): 0.000299 s⁻¹
kon (Human CD137-his [2]): 66200 M⁻¹ s⁻¹

From patent US20230067770A1 (SHANGHAI HENLIUS BIOTECH, published 2023)
